To fix the notation:
B1: C0120914 human Alya IgG1 (antibody, V domains shown)
VH: QVQLQESGPGLVKPSETLSLTCTVSGGSVSSGRYDWSWIRQPPGKGLEWIGHIYYTGITDYNPSLRSRVTISADKPKNQFSLKLNSVTAADTAVYYCARGPFFDPWGQGTMVTVSS
VL: QSVLTQPPSVSVAPGQTASLTCGANNIGSKSVQWYQQKPGQAPVLVVYDGSDRPSGIPDRFSGSSSENTATLTISRVEAGDEADYYCQLWDSVTDRPVFGGGTKVTVL
notes: Fully human, phage display derived; human IgG1 Alya constant (239iCys, S442C, EU); unconjugated
B2: C0120903 human Alya IgG1 (antibody, V domains shown)
VH: EVQLVQSGAEVKKPGSSMKVSCKASGGTFNSYTINWVRQAPGQGLEWVGGFIPIFGTADYAQKFHGRVAITADESMSTAYMELSSLRSEDTAVYYCARAPLGSEPFDYWGQGTMVTVSS
VL: SYVLTQPPSVSVAPGQTARITCGGNNIGSKSVHWYQQKPGQAPVLVVYDDSDRPSGIPERFSGSNSGNTATLTISRVEAGDEADYYCQVWDSSSDHLVFGGGTKLTVL
notes: as for B1
B3: C0120917 human Alya IgG1 (antibody, V domains shown)
VH: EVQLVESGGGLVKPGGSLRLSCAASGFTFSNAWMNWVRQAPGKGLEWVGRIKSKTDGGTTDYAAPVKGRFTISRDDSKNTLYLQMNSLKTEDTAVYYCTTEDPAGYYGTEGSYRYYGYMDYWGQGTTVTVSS
VL: NFMLTQPHSVSESPGKTVTISCTASGDTLDNKYVNWYQVRPGSAPATLIFHYEERDSGVPDRFSGSFDASSNSASLTISGLQTADEADYFCQSYDSKRDNLVVFGGGTKVTVL
notes: as for B1
B4: C0120906 human Alya IgG1 (antibody, V domains shown)
VH: EVQLVQSGPEVKKPGASVKISCKASGYKLNDPGVHGVSWVRQAPGQGLEWMGWISTLNGDTRYAQKFQGRVTMATDSSTSTIYMDLRSLKSDDTALYYCARDDYTAIFDFWGRGTLVTVSS
VL: QSVLTQPPSVSVAPGQTASITCGGSNIGSQSVHWYQQKPGQAPVLVVYDDSDRPSGIPERFSGSKSGNTASLILSRVEAGDEADYYCQVWDSSTDHHVFGTGTKVTVL
notes: as for B1
B5: C0120918 human Alya IgG1 (antibody, V domains shown)
VH: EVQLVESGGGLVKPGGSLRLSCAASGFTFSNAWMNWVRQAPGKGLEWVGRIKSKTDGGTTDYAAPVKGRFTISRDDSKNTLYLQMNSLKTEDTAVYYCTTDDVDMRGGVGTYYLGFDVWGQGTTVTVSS
VL: SYELTQPPSVSVSPGQTARITCSGDALPKQYAYWYQQKPGQAPVLVIYKDSERPSGIPERFSGSSSGTTVTLTISGVQAEDEADYYCQSADSSGTWVFGGGTKVTVL
notes: as for B1

For orientation: Kd means the free concentration of one partner at which half of the binding sites on the other are occupied at equilibrium, for simple one-to-one binding.

For this assay, the target named is T1, recombinant cynomolgus SEMA4A AviHis10, biotinylated (cynomolgus, UniProt Q9H3S1 32-677 (human entry), biotin on the Avi tag (BirA)).
T1 construct: The text says amino acids 32-679 of G7NV79 with C-terminal Avi tag and His10 tag; also called Cyno SEMA4A AviHis10; cynoSEMA4A
T1 chain: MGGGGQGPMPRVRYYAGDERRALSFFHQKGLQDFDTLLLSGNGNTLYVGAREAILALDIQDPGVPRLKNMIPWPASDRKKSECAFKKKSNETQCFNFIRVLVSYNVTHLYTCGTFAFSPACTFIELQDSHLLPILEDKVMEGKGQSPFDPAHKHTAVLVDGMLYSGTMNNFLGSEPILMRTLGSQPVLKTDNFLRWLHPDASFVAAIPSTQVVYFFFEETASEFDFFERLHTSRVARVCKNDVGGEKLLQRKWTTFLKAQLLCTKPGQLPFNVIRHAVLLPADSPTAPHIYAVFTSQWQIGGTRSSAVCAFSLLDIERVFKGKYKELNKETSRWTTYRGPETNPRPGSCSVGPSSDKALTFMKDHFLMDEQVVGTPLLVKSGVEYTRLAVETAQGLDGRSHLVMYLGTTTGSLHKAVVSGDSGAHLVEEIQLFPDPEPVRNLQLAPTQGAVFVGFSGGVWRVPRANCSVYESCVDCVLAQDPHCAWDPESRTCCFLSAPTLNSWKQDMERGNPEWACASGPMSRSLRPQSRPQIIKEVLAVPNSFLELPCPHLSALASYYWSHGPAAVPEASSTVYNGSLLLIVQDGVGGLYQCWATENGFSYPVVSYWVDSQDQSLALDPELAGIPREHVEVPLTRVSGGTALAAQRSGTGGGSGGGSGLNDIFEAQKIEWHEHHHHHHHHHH
The assay can be described thus: BLI (OctetRED), biotinylated SEMA4A on streptavidin tip, IgG as analyte, 1:1 model; KD(observed) IgG. The procedure:
An Octet Kinetics buffer (PBS containing 0.01% (v/v) BSA and 0.002% (v/v) Tween20) is typically used as the diluent buffer for the analyte samples and as the flow buffer during the dissociation phase. The experimental data is recorded as shift in interference pattern (nm) over time, which is directly proportional to the optical thickness at the biosensor tip, which in turn is an approximate measure of the mass of analyte bound. The proprietary Octet Data Analysis software package can then be used to process data and fit binding models to the data sets. Returned association (ka, M-1 s-1) and dissociation (kd, s-1) rate constants allow calculation of dissociation (KD, M) affinity constants.
The affinity of binding between the analytes (humanised and phage display derived IgGs as human Alya IgG1s and Fabs) and human SEMA4A and cynomolgus SEMA4A, was estimated using assays in which the biotinylated SEMA4A antigen was captured on a streptavidin sensor tip. A fresh sensor tip was used for each measurement and no regeneration was used. A series of dilutions of the lead Fabs and human Alya IgG1s (3.25-240 nM) were individually placed in contact with the ligand surface for a sufficient amount of time to observe sensorgrams that could be fitted to an appropriate binding model with confidence (typically 5 minutes), followed by an appropriate length of dissociation time (typically 10 minutes). Blank reference (0 nM analyte) data were subtracted from each dataset to reduce the impact of any buffer artefacts or non-specific binding effects. A 1:1 binding model was then fitted simultaneously to the data from each analyte titration using the Octet Evaluation software (Table 8).
With B1, the dissociation constant (Kd) amounted to 97 nM.
In the case of B2, the Kd stood at 20 nM.
With B3, the Kd stood at 6 nM.
Next, B4: 2 nM; B5: 9 nM.

The values above are taken from US20250152729A1 (CANCER RESEARCH TECHNOLOGY, published 2025).
